# According to PMC4549789:
# Molecular target: Escherichia coli β sliding clamp (Escherichia coli) (UniProt P0A988)
# UniProt P0A988, sequence (P0A988 whole entry): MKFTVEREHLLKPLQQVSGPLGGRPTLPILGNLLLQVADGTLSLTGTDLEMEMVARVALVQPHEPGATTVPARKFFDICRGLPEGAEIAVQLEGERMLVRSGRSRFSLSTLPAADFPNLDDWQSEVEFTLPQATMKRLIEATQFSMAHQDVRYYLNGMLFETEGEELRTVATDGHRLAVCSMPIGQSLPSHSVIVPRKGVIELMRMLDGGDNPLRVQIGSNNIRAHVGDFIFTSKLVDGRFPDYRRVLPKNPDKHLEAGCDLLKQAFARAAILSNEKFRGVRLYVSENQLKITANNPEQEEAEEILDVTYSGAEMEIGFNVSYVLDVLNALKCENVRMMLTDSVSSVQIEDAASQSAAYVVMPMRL
substance,measurement,value
"Acidiphilium IS1634 transposase, wild type (enzyme)",papillae in the in vivo papillation assay of transposition in E. coli DH5α (quantification for 8 colonies),3.15
